From patent publication US8263074B2, “Fibroblast growth factor receptor-1 inhibitors and methods of treatment thereof” (ImClone LLC, priority 2003, dated 2012)

Key:
[1] = Repeated-dose study in female athymic nude mice: body weight, food intake, rearing, blood glucose; type: in vivo; details: day 64
[2] = tested on: Human umbilical vascular endothelial cells (HUVECs); test: HUVEC proliferation assay (3H-thymidine); type: cell-based; details: 3H-thymidine incorporation
Experimental: Human umbilical vascular endothelial cells (HUVECs) were seeded in 96-well tissue culture plates at a concentration of 5×10^4 cells/ml. After attachment, cells were quiesced in EMG-2 medium lacking EGF, VEGF and FGF-2 (Cambrex, East Rutherford, N.J.) for 24 hrs. Quiescent media in wells were aspirated and replaced with EMG-2 that contained all the growth factors mentioned above. Antibodies were serially diluted and added to the wells. Cells were incubated at 37° C. with 5% CO2 in a Muaire™ DH autoflow incubator (Cryostar Industries, Inc., White Hall, Pa.) for 48-72 hrs. Cell growth was determined by monitoring ^3H-thymidine incorporation using a 1450 Micorbeta liquid scintillation counter (Perkin Elmer, Gaithersburg, Md.).

[3] = Repeated-dose study in female athymic nude mice: body weight, food intake, rearing, blood glucose; type: in vivo
Experimental: Female athymic nude mice (Cr1:NU/NU-nuBR, Charles River Laboratories, Wilmington, Mass.) were housed 4-5 per cage. Mice were given autoclaved food (Lab Diet #5001, PMI Feeds Inc., St. Louis, Mo.) and water ad libitum. All animal use in this study was conducted in compliance with approved institutional animal care and use protocols, and according to NIH guidelines (Guide for the Care and Use of Laboratory Animals, NIH publication no. 86-23, 1985).
In one assay, mice were injected intraperitoneally (i.p.) with FR1-H7 at 0.19, 1.9, and 19 mg/kg body weight (n=5 per group). In another assay, mice were injected subcutaneously (s.c.) with the antibody, at 0.4, 4, and 40 mg/kg body weight. In control arms, mice were treated with saline i.p. or s.c. In addition, one group of mice was left untreated (n=4). All treatments were given at a volume of 10 μl/g body weight in Saline. Treatments were started on a Wednesday (Day 0) with additional treatments on the following Friday, Monday, Wednesday, and Friday. After this 9-day treatment period mice received no additional treatments.
Alternatively, female athymic nude mice were injected (i.p.) with saline, 2 mg/kg, or 20 mg/kg FR1-A1 on a Monday (Day 0) and Wednesday. Body weights were measured before the first injection, and on Day 2 and Day 5. Food intake per group was measured 2 days after the first injection.
The body weights of all animals were measured 3 times/week. Food consumption, behavior, and serum glucose were evaluated as follows. Food Intake Measurement: Prior to the treatment on Day 2 mice were placed in a new cage and the weight of the food container in the cage top was weighed. Prior to the treatment on Day 5 the weight of the food container was measured again. The difference in the Day 2 to Day 5 food container weight was divided by the number of mice per cage and the number of days between the measurements to give a food intake per mouse per 24 hrs. Activity Measurement: On Day 12, 3 days after the final treatment, mice were placed individually into a new cage and the number of rearings was counted over a 1 min period. Blood Glucose Measurement On Day 16, 7 days after the final treatment, non-fasted blood glucose was measured in blood collected from the tip of the tail using an Ascensia Elite XL blood glucose meter (glucose oxidase method, Bayer, Pittsburg, Pa.).

FGFR-1(IIIb) = molecular target: T1, FGFR-1(IIIb) (Homo sapiens, UniProt P11362); test: ELISA binding assay
T1 construct: purchased R&D Systems
Experimental: (§1) Recombinant FGFRs (R&D systems) at a concentration of 1 μg/ml in PBS were coated on 96-well plates at room temperature for 2 hrs. The plates were washed 3 times with 0.2% Tween20/PBS, and blocked with 5% milk/PBS for 2 hrs before use. FR1-H7 or FR1-A1 was added to the plate and serially diluted in 0.2% Tween20/PBS. The plate was incubated at room temperature for 2 more hrs. The captured antibodies were detected using an anti-human light chain monoclonal antibody conjugated with […] (Pierce Biotechnology, Rockford, Ill.) solution prepared according to supplier's instructions.

other FGFRs = test: ELISA binding assay
Experimental: as §1

[4] = Single-dose short-term study in female athymic nude mice: body and tissue weights, serum chemistry; type: in vivo
Experimental: Short-term effects of the FR1-H7 antibody on serum levels of insulin, leptin, glucose, and triglycerides were examined by injecting 4 mg/kg antibody or control vehicle into female athymic nude mice. Samples were collected and evaluated before treatment and 6, 24, and 48 hours after treatment. Alanine aminotransferase (ALT), […], blood urea nitrogen (BUN), total serum proteins, and serum albumin levels were measured using serum samples taken 48 hours after treatment. The mice were sacrificed and weights of their left parametrial fat pad, left tibialis anterior muscle, left posterior liver lobe, and spleen were also taken.

human adipocytes = test: Adipocyte proliferation assay (3H-thymidine); type: cell-based; details: 15 ng/ml FGF-2, 60 hrs
Experimental: Two-week-old (after induced differentiation) grade 2 human adipocytes were obtained from Zen-Bio Inc. (Research Triangle, N.C.), and were maintained in the shipping media in a 96-well tissue culture plate. To evaluate the effects of FGF-2 on the proliferation of adipocytes, recombinant FGF-2 (R&D systems) was serially diluted and added to the wells of the plate. The cells were allowed to grow in the incubator for 60 hrs, before the level of ^3H-thymidine incorporation was determined. To evaluate the effects of FR1-H7 on adipocytes proliferation, the antibody was serially diluted and added to the cells before addition of recombinant FGF-2 to a final concentration of 15 ng/ml. ^3H-thymidine incorporation was determined after 60 hrs of incubation.

FGFR-3c = molecular target: T2, FGFR-3c (Homo sapiens, UniProt P22607); test: BiaCore binding kinetics; details: BiaCore kinetic analysis
T2 construct: purchased R&D Systems

FGFR-1c = molecular target: T3, FGFR-1c (Homo sapiens, UniProt P11362); test: BiaCore binding kinetics; details: BiaCore biosensor; read-out: Binding Kinetic (Kd), FGFR-1c
T3 construct: purchased R&D Systems
T3 sequence (P11362 22-822): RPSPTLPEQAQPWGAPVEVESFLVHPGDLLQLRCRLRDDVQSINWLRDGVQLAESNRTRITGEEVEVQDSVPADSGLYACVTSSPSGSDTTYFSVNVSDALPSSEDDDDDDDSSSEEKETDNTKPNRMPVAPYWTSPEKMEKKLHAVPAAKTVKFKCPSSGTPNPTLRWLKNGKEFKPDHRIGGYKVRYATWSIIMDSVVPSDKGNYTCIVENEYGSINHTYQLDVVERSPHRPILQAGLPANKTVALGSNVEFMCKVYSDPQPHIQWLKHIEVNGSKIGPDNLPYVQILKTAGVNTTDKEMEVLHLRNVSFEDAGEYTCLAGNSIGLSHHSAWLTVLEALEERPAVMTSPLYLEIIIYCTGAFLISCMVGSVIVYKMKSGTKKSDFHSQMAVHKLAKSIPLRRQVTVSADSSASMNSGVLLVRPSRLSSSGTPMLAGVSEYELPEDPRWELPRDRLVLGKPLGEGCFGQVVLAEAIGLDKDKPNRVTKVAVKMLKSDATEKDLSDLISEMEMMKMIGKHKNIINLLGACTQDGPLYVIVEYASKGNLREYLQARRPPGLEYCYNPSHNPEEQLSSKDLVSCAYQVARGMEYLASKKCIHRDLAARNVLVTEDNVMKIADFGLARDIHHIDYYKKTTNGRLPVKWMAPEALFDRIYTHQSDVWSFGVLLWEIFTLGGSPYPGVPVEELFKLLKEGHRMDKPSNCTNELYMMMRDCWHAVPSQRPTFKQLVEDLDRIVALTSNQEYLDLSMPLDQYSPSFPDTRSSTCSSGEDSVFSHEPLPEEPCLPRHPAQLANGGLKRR

T2 sequence (P22607 23-806): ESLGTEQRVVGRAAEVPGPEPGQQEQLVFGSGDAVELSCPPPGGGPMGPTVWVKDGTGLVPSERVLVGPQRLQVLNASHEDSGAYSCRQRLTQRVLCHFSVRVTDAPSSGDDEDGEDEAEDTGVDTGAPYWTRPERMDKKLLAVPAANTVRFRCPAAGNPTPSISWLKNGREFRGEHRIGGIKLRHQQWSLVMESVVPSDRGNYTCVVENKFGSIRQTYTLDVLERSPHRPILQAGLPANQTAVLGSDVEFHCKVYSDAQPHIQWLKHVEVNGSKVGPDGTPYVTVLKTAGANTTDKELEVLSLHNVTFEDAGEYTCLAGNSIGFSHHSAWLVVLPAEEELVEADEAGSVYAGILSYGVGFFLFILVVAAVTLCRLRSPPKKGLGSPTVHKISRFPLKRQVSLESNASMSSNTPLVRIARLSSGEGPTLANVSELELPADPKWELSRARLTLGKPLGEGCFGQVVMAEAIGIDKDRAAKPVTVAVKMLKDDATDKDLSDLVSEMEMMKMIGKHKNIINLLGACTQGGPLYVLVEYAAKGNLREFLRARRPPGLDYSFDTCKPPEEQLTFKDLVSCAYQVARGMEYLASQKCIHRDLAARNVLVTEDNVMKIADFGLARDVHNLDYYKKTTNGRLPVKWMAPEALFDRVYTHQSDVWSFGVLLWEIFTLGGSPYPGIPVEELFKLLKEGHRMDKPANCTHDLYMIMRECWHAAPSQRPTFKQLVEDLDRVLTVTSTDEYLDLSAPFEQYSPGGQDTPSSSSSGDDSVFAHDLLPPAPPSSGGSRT
T1 sequence (P11362 22-822 isoform P11362-19 limits assumed): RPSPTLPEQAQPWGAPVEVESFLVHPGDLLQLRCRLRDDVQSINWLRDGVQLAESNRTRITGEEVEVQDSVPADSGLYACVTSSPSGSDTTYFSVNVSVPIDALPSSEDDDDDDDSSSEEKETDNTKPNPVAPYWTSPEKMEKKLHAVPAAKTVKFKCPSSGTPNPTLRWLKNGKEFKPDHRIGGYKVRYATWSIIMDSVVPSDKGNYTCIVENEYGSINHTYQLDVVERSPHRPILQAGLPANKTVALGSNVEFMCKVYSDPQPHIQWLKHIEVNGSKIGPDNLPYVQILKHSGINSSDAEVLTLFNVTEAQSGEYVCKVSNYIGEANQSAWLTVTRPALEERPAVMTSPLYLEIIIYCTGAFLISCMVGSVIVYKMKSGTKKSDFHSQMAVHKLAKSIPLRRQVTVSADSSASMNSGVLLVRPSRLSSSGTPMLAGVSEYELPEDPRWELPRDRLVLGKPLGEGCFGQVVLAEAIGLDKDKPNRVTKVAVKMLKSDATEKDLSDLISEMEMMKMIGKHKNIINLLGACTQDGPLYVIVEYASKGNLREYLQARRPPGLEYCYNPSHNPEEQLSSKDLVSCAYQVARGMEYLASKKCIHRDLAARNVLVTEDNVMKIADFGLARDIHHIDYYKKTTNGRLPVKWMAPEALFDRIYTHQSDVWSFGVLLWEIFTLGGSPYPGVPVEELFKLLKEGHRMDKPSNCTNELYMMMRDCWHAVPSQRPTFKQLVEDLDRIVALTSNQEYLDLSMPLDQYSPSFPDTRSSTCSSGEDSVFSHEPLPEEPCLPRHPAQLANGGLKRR

B1: FR1-H7: human monoclonal antibody from phage Fab library, specific for FGFR-1(IIIb) and/or FGFR-1(IIIc), and/or FGFR-4(IIIc); VH/VL SEQ ID NOS:7, 8 (antibody, listed as Homo sapiens)
VH: MAEVQLVQSGAEVKKPGASVKVSCKVSGYTFTDYYMHWVQQAPGKGLEWMGLVDPEDGETIYAEKFQGRVTITADTSTDTAYMELSSLRSEDTAVYYCARDDYMDVWGKGTLVTVSSASTKGP
VL: LETTLTQSPDTLSLSPGEGATLSCRASQSVSGSALAWYQQKPGQAPRLLIYDASSRATGVPDRFSGSGSGADFSLTISRLEPEDFAVYSCQQYGSSPLTFGPGTKVDVKRTVAAPSVFIFPPSDEQLKSGTASVVCLLNNFYPREAKVQWKVD
- non-fasted blood glucose after weight recovery [1]: restored to normal range
- proliferation of HUVECs in vitro [2]: inhibited the proliferation of HUVECs in vitro in a dose-dependant manner
- moderate weight loss continued one week after treatment was stopped ([3]; 1.9 mg/kg): ~0.5 g
- time to complete weight recovery after treatment was stopped ([3]; 1.9 mg/kg): 25 days
- weight loss of the total body weight ([3]; 1.9 mg/kg i.p., within the first 3 treatments): ~20%
- lagging time of first significant weight gain after stop of treatments ([3]; 4 mg/kg s.c.): 14 days
- unusual weight loss of the total body weight, one animal euthanized ([3]; 19 mg/kg group): ~50%
- lagging time of first significant weight gain after stop of treatments ([3]; 19 mg/kg i.p.): 24 days
- reduction of non-fasting blood glucose as fraction of the normal glucose level ([3]; 19 mg/kg i.p. and 40 mg/kg s.c. groups, one week after end of treatment): ⅓
- lagging time of first significant weight gain after stop of treatments ([3]; 40 mg/kg s.c.): 19 days
- exploratory behavior (rearings per min in a novel environment) ([3]; Day 12): not significantly altered
- maximal weight loss as fraction of the averaged body weight of the controls ([3]; dosage higher than 4 mg/kg): ⅓
- reduction of non-fasting food intake ([3]; groups that lost weight, between second and third treatment): approximately 35%
- body weight change ([3]; two lowest dosages 0.19 and 0.4 mg/kg): slight weight gains
- binding to FGFR-1(IIIb) (FGFR-1(IIIb)): strong affinities
- binding to the other FGFRs (other FGFRs): does not recognize
- serum insulin level ([4]; single 4 mg/kg): significantly reduced
- serum leptin level ([4]; single 4 mg/kg): significantly reduced
- serum triglycerides level ([4]; single 4 mg/kg): significantly reduced
- reduction of averaged body weight compared to control groups ([4]; single 4 mg/kg s.c., 48 hours): approximately 6%
- weight reduction of parametrial fat pad ([4]; single 4 mg/kg s.c., 48 hours): approximately 60%
- weights of muscle, liver, and spleen ([4]; single 4 mg/kg s.c., 48 hours): appear to be normal
- levels of ALT, CPK, BUN, total serum proteins, and serum albumin versus control ([4]; single 4 mg/kg, 48 hours): no significant differences
- serum glucose level ([4]; single 4 mg/kg, 48 hours after treatment): did not affect
- FGF-2-stimulated proliferation of adipocytes (human adipocytes): inhibited the FGF-2-stimulated proliferation of adipocytes in a dose dependant manner
- Kd (FGFR-3c): > 1000 nM
- Kd (FGFR-1c): 0.04 nM
